Experimental findings from US20250152729A1 (CANCER RESEARCH TECHNOLOGY, published 2025) are described below.

In test [1] the target is T1, mouse SEMA4A expressed on expi293 cells (UniProt ID Q62178) (mouse, UniProt Q62178 33-760).
T1 construct: Transient transfection in expi293 cells
T1 sequence: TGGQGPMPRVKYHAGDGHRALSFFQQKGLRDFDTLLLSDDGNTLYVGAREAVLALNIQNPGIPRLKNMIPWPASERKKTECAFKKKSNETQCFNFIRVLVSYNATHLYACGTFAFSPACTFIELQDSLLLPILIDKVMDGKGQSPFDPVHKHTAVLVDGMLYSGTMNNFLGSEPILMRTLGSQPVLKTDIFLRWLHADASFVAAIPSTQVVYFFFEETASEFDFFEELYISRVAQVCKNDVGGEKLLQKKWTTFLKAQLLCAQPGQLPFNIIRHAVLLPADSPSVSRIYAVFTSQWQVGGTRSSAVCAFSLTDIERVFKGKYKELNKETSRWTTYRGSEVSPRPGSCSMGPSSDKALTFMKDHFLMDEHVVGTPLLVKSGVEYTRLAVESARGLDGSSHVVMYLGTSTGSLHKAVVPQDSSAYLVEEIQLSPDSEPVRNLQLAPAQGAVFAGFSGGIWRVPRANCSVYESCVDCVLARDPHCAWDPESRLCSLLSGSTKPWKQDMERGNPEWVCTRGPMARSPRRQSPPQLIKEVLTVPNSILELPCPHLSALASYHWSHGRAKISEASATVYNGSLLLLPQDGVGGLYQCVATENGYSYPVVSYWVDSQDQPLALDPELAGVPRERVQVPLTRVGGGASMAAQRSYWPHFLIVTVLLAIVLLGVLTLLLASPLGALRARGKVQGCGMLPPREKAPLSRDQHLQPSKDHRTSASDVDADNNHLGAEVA
As to the kind of experiment: Mirrorball direct binding, dilution series on expi293 cells transiently transfected with mouse SEMA4A, anti-human Alexa Fluor 647. An excerpt: (§1) Hits from the primary screening were re-formatted into the human Alya IgG1 vector and re-expressed and purified as described in section 4.1. In addition, a single clone was identified that contained an Asparagine deamidation motif (Asn Gly) within its VHCDR2. This potential sequence liability was de-risked by synthesising de novo two clonal variant VH genes (Asn Ala and Gln Gly) and cloning these sequences into the human Alya IgG1 expression vector. To determine the specificity profile of each purified human Alya IgG1, a dilution series was tested for binding to human SEMA4A, mouse SEMA4A, cyno SEMA4A, human SEMA4B and mock transfected cells (transient transfections set up in expi 293 cells.) The five assays employed methods described in section 2.3, using the appropriate cells and substituting the un-purified scFv periplasmic preparation with the recombinant human Alya IgG1 dilution series. Data was analysed as Count x median mean intensity (x FLU).

Test [2] addresses T2, cynomolgus SEMA4A expressed on expi293 cells (UniProt ID G7NV79) (cynomolgus, UniProt Q9H3S1 33-761 (human entry)).
T2 construct: Transient transfection in expi293 cells; also called cyno SEMA4A
T2 chain: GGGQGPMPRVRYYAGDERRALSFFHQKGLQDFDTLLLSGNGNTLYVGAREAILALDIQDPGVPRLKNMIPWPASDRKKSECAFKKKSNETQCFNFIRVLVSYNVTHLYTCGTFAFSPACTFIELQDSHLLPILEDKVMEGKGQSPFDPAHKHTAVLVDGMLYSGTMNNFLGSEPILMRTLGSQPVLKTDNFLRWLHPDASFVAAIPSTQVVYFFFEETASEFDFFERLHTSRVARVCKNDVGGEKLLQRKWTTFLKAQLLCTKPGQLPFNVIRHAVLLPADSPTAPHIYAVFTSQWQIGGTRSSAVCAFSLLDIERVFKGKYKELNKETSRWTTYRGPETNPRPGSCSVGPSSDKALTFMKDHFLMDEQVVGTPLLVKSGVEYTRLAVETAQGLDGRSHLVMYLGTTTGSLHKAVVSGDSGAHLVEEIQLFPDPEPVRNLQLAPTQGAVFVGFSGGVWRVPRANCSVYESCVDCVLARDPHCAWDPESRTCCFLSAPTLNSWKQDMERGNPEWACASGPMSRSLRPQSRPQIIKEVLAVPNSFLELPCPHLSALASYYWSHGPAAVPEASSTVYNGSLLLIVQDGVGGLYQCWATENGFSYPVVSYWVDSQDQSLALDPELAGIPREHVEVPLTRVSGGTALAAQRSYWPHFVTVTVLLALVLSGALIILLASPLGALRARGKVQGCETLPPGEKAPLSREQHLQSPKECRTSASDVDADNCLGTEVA
As to the kind of experiment: Mirrorball direct binding, dilution series on expi293 cells transiently transfected with cynomolgus SEMA4A, anti-human Alexa Fluor 647.
Excerpt: as §1

For test [3], the target named is T3, human SEMA4B expressed on expi293 cells (human, UniProt Q9NPR2 44-837).
T3 construct: whole, on cells
T3 sequence (looked up): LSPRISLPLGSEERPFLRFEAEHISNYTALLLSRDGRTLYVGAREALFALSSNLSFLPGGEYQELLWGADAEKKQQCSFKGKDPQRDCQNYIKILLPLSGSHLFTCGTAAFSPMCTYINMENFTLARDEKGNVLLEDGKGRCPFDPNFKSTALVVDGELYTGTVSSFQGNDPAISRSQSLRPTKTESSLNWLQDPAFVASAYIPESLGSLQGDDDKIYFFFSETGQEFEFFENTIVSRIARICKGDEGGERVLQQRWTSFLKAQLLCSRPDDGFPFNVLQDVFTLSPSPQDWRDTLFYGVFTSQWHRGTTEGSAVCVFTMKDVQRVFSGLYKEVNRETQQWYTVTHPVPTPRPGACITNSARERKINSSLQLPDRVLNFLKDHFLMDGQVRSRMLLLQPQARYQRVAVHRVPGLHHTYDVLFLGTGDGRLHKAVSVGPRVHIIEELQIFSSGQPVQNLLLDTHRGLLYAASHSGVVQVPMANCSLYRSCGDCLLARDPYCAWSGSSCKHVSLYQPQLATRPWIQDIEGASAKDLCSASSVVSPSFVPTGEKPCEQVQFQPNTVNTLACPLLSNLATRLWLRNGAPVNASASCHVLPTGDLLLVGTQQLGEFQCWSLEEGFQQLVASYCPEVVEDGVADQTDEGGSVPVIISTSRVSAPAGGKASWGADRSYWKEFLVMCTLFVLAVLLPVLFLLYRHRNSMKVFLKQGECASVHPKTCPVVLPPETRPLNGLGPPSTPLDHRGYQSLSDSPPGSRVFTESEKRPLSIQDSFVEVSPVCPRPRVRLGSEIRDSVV
Kind of test: Mirrorball direct binding, dilution series on expi293 cells transiently transfected with human SEMA4B, anti-human Alexa Fluor 647.
Excerpt: as §1

For test [4], the target named is T4, human SEMA4A expressed on cells (UniProt ID Q9H3S1, isoform 1) (human, UniProt Q9H3S1 33-761).
T4 construct: Cell-surface SEMA4A: endogenous on MM.1S, NCI-H929 and Karpas-25 cells, or expi293 cells transfected with Origene SC323738; also called human Semaphorin4A; SEMA4A endogenously expressed on MM.1S cells
T4 sequence: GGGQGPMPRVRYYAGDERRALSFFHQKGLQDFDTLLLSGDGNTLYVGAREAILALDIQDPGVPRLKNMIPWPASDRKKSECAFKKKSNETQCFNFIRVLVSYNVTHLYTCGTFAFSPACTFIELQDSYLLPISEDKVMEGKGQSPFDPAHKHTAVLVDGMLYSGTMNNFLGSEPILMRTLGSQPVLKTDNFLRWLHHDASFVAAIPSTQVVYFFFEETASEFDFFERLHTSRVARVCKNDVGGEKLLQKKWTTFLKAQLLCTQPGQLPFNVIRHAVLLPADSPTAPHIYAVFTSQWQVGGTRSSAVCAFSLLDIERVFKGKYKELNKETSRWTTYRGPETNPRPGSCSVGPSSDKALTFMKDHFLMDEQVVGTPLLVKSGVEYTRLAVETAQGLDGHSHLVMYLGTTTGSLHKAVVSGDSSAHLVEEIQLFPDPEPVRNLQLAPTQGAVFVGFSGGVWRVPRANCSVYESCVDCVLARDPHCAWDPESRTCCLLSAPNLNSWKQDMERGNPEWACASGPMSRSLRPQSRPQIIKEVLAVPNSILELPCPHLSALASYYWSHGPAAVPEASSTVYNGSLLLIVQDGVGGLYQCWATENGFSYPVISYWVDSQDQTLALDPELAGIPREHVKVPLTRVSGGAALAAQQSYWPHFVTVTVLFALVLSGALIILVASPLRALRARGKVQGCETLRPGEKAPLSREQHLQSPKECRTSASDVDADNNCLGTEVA
As to the kind of experiment: Mirrorball direct binding, dilution series on expi293 cells transiently transfected with human SEMA4A, anti-human Alexa Fluor 647.
Excerpt: as §1

B1: C0120923 (antibody, V domains shown)
VH: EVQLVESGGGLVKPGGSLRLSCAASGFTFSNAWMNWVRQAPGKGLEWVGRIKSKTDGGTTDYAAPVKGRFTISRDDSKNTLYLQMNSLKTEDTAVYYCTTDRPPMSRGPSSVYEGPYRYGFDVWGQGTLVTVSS
VL: NFMLTQPHSVSESPGKTVTISCTGSGGNIVDNFVQWHQQRPGSSPTTVIYEDDQRPSGVPDRFSASVDSSSNSGSLTISGLKTEDEADYYCQSYDGANRWVFGGGTKLTVL
modifications: 239iCys and S442C (EU numbering) in the constant region
notes: one of the 6 germlined clones of m49; purified, unconjugated; also called C0120923 germlined human Alya IgG1
With B1, the binding result in test [1] is reported as “binds”; in test [2] it was “binds”; in test [3], “no binding (tested: log (M) -8 (1e-8 M))”; in test [4] it was “binds”.

B2: C0120924 (antibody, V domains shown)
VH: QVQLVQSGAEVKKPGASVKVSCKASGYKLNDPGVHGVSWVRQAPGQGLEWMGWISTLNGDTRYAQKFQGRVTMTTDSSTSTIYMELRSLRSDDTAVYYCARDDYTAIFDFWGQGTLVTVSS
VL: SSVLTQPPSVSVAPGQTARITCGGSNIGSQSVHWYQQKPGQAPVLVVYDDSDRPSGIPERFSGSKSGNTATLTISRVEAGDEADYYCQVWDSSTDHHVFGTGTKVTVL
modifications: 239iCys and S442C (EU numbering) in the constant region
notes: one of the 6 germlined clones of m49; purified, unconjugated; also called C0120924 germlined human Alya IgG1
Take B2: the binding result in test [1] is listed as “binds”; in test [2], “binds”; in test [3] it was “no binding (tested: log (M) -8 (1e-8 M))”; in test [4], “binds”.
